Measurements published in patent publication US20190270826A1 (Janssen / Centocor, published 2019).

T1: recombinant human IL1RAP ECD (human, UniProt Q9NPH3 21-367)
T1 construct: His-tagged; also called hIL1RAP-ECD; rhuIL1RAP
T1 sequence: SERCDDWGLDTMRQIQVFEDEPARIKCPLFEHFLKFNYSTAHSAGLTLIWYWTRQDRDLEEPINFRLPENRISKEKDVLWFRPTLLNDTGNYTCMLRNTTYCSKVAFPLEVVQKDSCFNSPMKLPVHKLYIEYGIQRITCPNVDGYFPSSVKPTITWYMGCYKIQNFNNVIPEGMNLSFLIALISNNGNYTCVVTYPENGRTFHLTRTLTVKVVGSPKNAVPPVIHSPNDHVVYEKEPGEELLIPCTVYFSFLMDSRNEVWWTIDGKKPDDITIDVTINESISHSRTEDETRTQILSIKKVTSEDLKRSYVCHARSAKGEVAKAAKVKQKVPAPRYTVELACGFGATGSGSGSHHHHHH

T2: recombinant cyno IL1RAP ECD (cynomolgus monkey, UniProt P59822 21-367 (rhesus entry))
T2 construct: also called rcynoIL1RAP
T2 sequence: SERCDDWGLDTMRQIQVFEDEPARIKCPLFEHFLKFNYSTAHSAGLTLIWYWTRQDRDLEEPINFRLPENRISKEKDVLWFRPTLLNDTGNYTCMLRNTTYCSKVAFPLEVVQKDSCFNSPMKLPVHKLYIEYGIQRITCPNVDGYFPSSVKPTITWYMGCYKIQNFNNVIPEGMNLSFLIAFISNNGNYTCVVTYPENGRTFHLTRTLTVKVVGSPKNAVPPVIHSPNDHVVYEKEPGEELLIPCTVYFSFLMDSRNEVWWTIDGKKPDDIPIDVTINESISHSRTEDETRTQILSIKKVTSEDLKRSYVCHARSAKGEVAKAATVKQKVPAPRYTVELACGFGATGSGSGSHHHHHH

T3: human IL1RAP on cells (endogenous) (human, UniProt Q9NPH3 21-570)
T3 sequence (looked up): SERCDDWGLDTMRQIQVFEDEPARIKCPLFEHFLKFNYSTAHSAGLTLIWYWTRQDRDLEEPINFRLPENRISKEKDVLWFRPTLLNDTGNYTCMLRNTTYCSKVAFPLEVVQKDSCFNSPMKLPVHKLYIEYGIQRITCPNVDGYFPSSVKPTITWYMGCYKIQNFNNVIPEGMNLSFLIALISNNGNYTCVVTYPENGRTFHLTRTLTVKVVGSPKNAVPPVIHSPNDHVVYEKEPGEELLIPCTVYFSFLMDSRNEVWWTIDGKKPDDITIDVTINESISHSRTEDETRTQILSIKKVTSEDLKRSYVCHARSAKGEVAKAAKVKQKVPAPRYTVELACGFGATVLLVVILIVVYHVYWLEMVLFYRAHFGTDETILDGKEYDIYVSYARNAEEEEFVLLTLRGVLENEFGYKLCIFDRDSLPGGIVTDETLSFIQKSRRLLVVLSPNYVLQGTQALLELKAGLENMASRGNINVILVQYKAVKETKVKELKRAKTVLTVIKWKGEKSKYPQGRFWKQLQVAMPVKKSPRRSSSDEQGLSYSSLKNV


Assays:
[1] = molecular target: T1, recombinant human IL1RAP ECD; experiment: SPR (ProteOn)
Protocol: The rates of IL1RAP ECD association and dissociation were measured for each variant. The biosensor surface was prepared by covalently coupling Goat anti-Human IgG (Fc) to the surface of a GLC chip (BioRad) using the manufacturer instructions for amine-coupling chemistry. […] The RU immobilized also included a goat anti-mouse Fc antibody that was added to capture other antibodies not included in the ones reported here. Since the mixture was 1:1 about 50% of these RU immobilized are expected to be goat anti-human Fc. The kinetic experiments were performed at 25° C. in running buffer (PBS pH 7.4, 0.005% P20, 3 mM EDTA). […] (1:3) serial dilutions of human IL1RAP ECD, starting at 400 nM were prepared in running buffer. […] The reference spots (Goat anti-Human IgG (Fc)-modified surface) containing no candidate captured were used as a reference surface. Capture of mAb was followed by a 3 minute injection (association phase) of antigen at 40 μL/min, followed by 10 minutes of buffer flow (dissociation phase). […] Data was processed on the instrument software. Double reference subtraction of the data was performed by subtracting the curves generated by buffer injection from the reference-subtracted curves for analyte injections. Kinetic analysis of the data was performed using 1:1 Langmuir binding model with group fit.

[2] = molecular target: T1, recombinant human IL1RAP ECD; experiment: SPR
[3] = molecular target: T2, recombinant cyno IL1RAP ECD; experiment: SPR
[4] = molecular target: T1, recombinant human IL1RAP ECD; experiment: SPR; remark: listed apart in the source
[5] = molecular target: T2, recombinant cyno IL1RAP ECD; experiment: SPR; remark: listed apart in the source
[6] = molecular target: T1, recombinant human IL1RAP ECD; experiment: SPR, summary
[7] = molecular target: T2, recombinant cyno IL1RAP ECD; experiment: SPR, summary
[8] = molecular target: T3, human IL1RAP on cells (endogenous); experiment: cell-based or functional assay
[9] = molecular target: T1, recombinant human IL1RAP ECD; experiment: SPR; human KD over cyno KD

Binder | Kd [1] | koff [1] | kon [1] | Kd [2] | koff [2] | kon [2] | Kd [3] | koff [3] | kon [3] | Kd [4] | Kd [5] | Kd [6] | Kd [7] | Hu/Cyno KD Ratio [9] | EC50, T-cell mediated cytotoxicity [8]
IAPB55, 22A09 (hybridoma mAb, unpurified) (antibody, V domains shown, OmniRat hybridoma product (rat constant region)) VH: QLQLQESGPGLVKPSETLSLTCTVSGVSISSSTYYWGWLRQPPGMGLEWTGSIYFTGNTYYNPSLKSRVTISVDTSRNQFSLKLSSVTAADTAVYYCGSLFGDYGYFDYWGQGTLVTVSS VL: EIVMTQSPATLSVSPGERATLSCRASQFISSNLAWYQQKPGQAPRLLIYGASTRATGIPARFSGSGSGTDFTLTISSLQSEDFAVYYCQQYNNWPFTFGPGTKVDIK | 1.64 nM | 0.000747 s⁻¹ | 454000 M⁻¹ s⁻¹ | – | – | – | – | – | – | – | – | – | – | – | –
IAPB61, 25D12 (hybridoma mAb, unpurified) (antibody, V domains shown, OmniRat hybridoma product (rat constant region)) VH: QLQLQESGPGLVKPSETLSLTCTVSGVSISSSTYYWGWLRQPPGMGLEWTGSIYFTGNTYYNPSLKSRVTISVDTSRNQFSLKLSSVTAADTAVYYCGSLFGDYGYFDYWGQGTLVTVSS VL: EIVMTQSPATLSVPPGERATLSCRASQFISSNLAWYQQKPGQAPRLLIYGASTRATGIPARFSGSGSGTDFTLTISSLQSEDFAVYYCQQYNNWPSTFGPGTKVDIK | 17.5 nM | 0.0142 s⁻¹ | 810000 M⁻¹ s⁻¹ | – | – | – | – | – | – | – | – | – | – | – | –
IAPB57, 5G08 (hybridoma mAb, unpurified) (antibody, V domains shown, OmniRat hybridoma product (rat constant region)) VH: QLQLQESGPGLVKPSETLSLTCTVSGGSISSSTYYWGWIRQPPGKGLEWIGSIYFTGSTDYNPSLKSRVSISVDTSKNQFSLKLSSVTAADTAVYYCAKEDDSSGYYSFDYWGQGNLVTVSS VL: DIQLTQSPSFLSASVGDRVTITCRASQGISSYLAWYQQKPGKAPKLLIYAASTLQSGVPSRFSGSGSGTEFTLTISSLQPEDFATYYCQQVNSYPLTFGGGTKVEIK | 0.16 nM | 0.000129 s⁻¹ | 807000 M⁻¹ s⁻¹ | – | – | – | – | – | – | – | – | – | – | – | –
IC3B1 (bispecific antibody, human IgG4 S228P, kappa, lambda, F234A L235A, IgG4-PAA, Fab arm exchange; also called IAPB47 x CD3B220) heavy 1: EVQLVESGGGLVQPGGSLKLSCAASGFTFNTYAMNWVRQASGKGLEWVGRIRSKYNAYATYYAASVKGRFTISRDDSKNTAYLQMNSLKTEDTAVYYCTRHGNFGNSYVSWFAYWGQGTLVTVSSASTKGPSVFPLAPCSRSTSESTAALGCLVKDYFPEPVTVSWNSGALTSGVHTFPAVLQSSGLYSLSSVVTVPSSSLGTKTYTCNVDHKPSNTKVDKRVESKYGPPCPPCPAPEAAGGPSVFLFPPKPKDTLMISRTPEVTCVVVDVSQEDPEVQFNWYVDGVEVHNAKTKPREEQFNSTYRVVSVLTVLHQDWLNGKEYKCKVSNKGLPSSIEKTISKAKGQPREPQVYTLPPSQEEMTKNQVSLTCLVKGFYPSDIAVEWESNGQPENNYKTTPPVLDSDGSFLLYSKLTVDKSRWQEGNVFSCSVMHEALHNHYTQKSLSLSLGK light 1: QAVVTQEPSLTVSPGGTVTLTCRSSTGAVTTSNYANWVQQKPGQAPRGLIGGTNKRAPGTPARFSGSLLGGKAALTLSGAQPEDEAEYYCALWYSNLWVFGGGTKLTVLGQPKAAPSVTLFPPSSEELQANKATLVCLISDFYPGAVTVAWKADSSPVKAGVETTTPSKQSNNKYAASSYLSLTPEQWKSHRSYSCQVTHEGSTVEKTVAPTECS heavy 2: not shown light 2: EIVLTQSPGTLSLSPGERATLSCRASQSISNDLNWYQQKPGKAPKLLIYYASSLQSGVPSRFSGSGSGTDFTLTINSLQPEDFATYYCQQSFTAPLTFGQGTKVEIKRTVAAPSVFIFPPSDEQLKSGTASVVCLLNNFYPREAKVQWKVDNALQSGNSQESVTEQDSKDSTYSLSSTLTLSKADYEKHKVYACEVTHQGLSSPVTKSFNRGEC | – | – | – | 1.09 nM | 0.000759 s⁻¹ | 697000 M⁻¹ s⁻¹ | 0.212 nM | 0.000236 s⁻¹ | 1.11e+06 M⁻¹ s⁻¹ | 1.09 nM | 0.212 nM | 1.09 nM | 0.212 nM | 5.1 | 0.049 nM

Continued, in another order:

Kd [1] | koff [1] | kon [1] | Kd [2] | koff [2] | kon [2] | Kd [3] | koff [3] | kon [3] | Kd [4] | Kd [5] | Kd [6] | Kd [7] | Hu/Cyno KD Ratio [9] | Binder | EC50, T-cell mediated cytotoxicity [8]
– | – | – | 29.7 nM | 0.0547 s⁻¹ | 1.84e+06 M⁻¹ s⁻¹ | 27.8 nM | 0.053 s⁻¹ | 1.91e+06 M⁻¹ s⁻¹ | 29.7 nM | 27.8 nM | 29.7 nM | 27.8 nM | 1.1 | IC3B9 (bispecific antibody, human IgG4 S228P, kappa, lambda, F234A L235A, IgG4-PAA, Fab arm exchange; also called IAPB25 x CD3B220) heavy 1: EVQLVESGGGLVQPGGSLKLSCAASGFTFNTYAMNWVRQASGKGLEWVGRIRSKYNAYATYYAASVKGRFTISRDDSKNTAYLQMNSLKTEDTAVYYCTRHGNFGNSYVSWFAYWGQGTLVTVSSASTKGPSVFPLAPCSRSTSESTAALGCLVKDYFPEPVTVSWNSGALTSGVHTFPAVLQSSGLYSLSSVVTVPSSSLGTKTYTCNVDHKPSNTKVDKRVESKYGPPCPPCPAPEAAGGPSVFLFPPKPKDTLMISRTPEVTCVVVDVSQEDPEVQFNWYVDGVEVHNAKTKPREEQFNSTYRVVSVLTVLHQDWLNGKEYKCKVSNKGLPSSIEKTISKAKGQPREPQVYTLPPSQEEMTKNQVSLTCLVKGFYPSDIAVEWESNGQPENNYKTTPPVLDSDGSFLLYSKLTVDKSRWQEGNVFSCSVMHEALHNHYTQKSLSLSLGK light 1: QAVVTQEPSLTVSPGGTVTLTCRSSTGAVTTSNYANWVQQKPGQAPRGLIGGTNKRAPGTPARFSGSLLGGKAALTLSGAQPEDEAEYYCALWYSNLWVFGGGTKLTVLGQPKAAPSVTLFPPSSEELQANKATLVCLISDFYPGAVTVAWKADSSPVKAGVETTTPSKQSNNKYAASSYLSLTPEQWKSHRSYSCQVTHEGSTVEKTVAPTECS heavy 2: not shown light 2: not shown | –
– | – | – | 11.2 nM | 0.0129 s⁻¹ | 1.15e+06 M⁻¹ s⁻¹ | 10.2 nM | 0.0148 s⁻¹ | 1.46e+06 M⁻¹ s⁻¹ | 11.2 nM | 10.2 nM | 11.2 nM | 10.2 nM | 1.1 | IC3B4 (bispecific antibody, human IgG4 S228P, kappa, lambda, F234A L235A, IgG4-PAA, Fab arm exchange; also called IAPB61 x CD3B220) heavy 1: EVQLVESGGGLVQPGGSLKLSCAASGFTFNTYAMNWVRQASGKGLEWVGRIRSKYNAYATYYAASVKGRFTISRDDSKNTAYLQMNSLKTEDTAVYYCTRHGNFGNSYVSWFAYWGQGTLVTVSSASTKGPSVFPLAPCSRSTSESTAALGCLVKDYFPEPVTVSWNSGALTSGVHTFPAVLQSSGLYSLSSVVTVPSSSLGTKTYTCNVDHKPSNTKVDKRVESKYGPPCPPCPAPEAAGGPSVFLFPPKPKDTLMISRTPEVTCVVVDVSQEDPEVQFNWYVDGVEVHNAKTKPREEQFNSTYRVVSVLTVLHQDWLNGKEYKCKVSNKGLPSSIEKTISKAKGQPREPQVYTLPPSQEEMTKNQVSLTCLVKGFYPSDIAVEWESNGQPENNYKTTPPVLDSDGSFLLYSKLTVDKSRWQEGNVFSCSVMHEALHNHYTQKSLSLSLGK light 1: QAVVTQEPSLTVSPGGTVTLTCRSSTGAVTTSNYANWVQQKPGQAPRGLIGGTNKRAPGTPARFSGSLLGGKAALTLSGAQPEDEAEYYCALWYSNLWVFGGGTKLTVLGQPKAAPSVTLFPPSSEELQANKATLVCLISDFYPGAVTVAWKADSSPVKAGVETTTPSKQSNNKYAASSYLSLTPEQWKSHRSYSCQVTHEGSTVEKTVAPTECS heavy 2: not shown light 2: not shown | –
